In paper PMC4226670:

Target: GST-p53 (UniProt P04637)
Experiment: fluorescence polarization
Conditions: FP: 4 nM FAM duplex, 100 mM NaCl, 10 mM Tris-HCl pH 7.5, 10% glycerol, 5 mM DTT, 0.2 mg/mL BSA, room temperature; pull-down: 2 ug duplex with lysate, 90 min …

Chain of GST-p53 (P04637 whole entry): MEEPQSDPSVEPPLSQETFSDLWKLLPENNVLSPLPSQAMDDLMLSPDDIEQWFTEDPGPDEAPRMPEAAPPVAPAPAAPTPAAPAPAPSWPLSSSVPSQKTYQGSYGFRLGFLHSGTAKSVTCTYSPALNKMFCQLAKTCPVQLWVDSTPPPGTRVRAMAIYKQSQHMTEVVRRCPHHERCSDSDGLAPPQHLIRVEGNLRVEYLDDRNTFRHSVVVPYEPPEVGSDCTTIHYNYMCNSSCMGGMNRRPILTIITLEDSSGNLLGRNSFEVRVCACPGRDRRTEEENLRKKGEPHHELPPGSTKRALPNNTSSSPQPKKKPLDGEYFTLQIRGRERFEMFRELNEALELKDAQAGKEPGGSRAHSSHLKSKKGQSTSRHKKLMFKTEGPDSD

## CGCGCCTGCAAGTCCTGACTTGTCCGCGGC (double strand) [PUMA promoter duplex, FAM]
  Kd: 29.6 nM
